How the values were obtained:
Details in all cases: tags: PeproTech
[1] = biological target: T1, IL-21 (interleukin-21) (Homo sapiens, UniProt Q9HBE4 SEQ:25-162); experiment: cell_activity; 10 nM aptamer, scored −
Description: (§1) After overnight culture, the same medium was used to seed 2×10⁴ cells per well for testing. Human IL-21 alone or a mixed solution of human IL-21 and aptamer was added thereto and the cells were cultured for 16 hr. The final concentration of human IL-21 was adjusted to 0.05 nM. After 16 hr, the culture supernatant was collected and IFN-γ contained in the supernatant was quantified by sandwich ELISA method. An ELISA Kit manufactured by R&D Systems or Diaclone was used for quantification. After quantification, the inhibitory rate was calculated using the following formula.
Whether these aptamers bind to human IL-21 and inhibit the function thereof was evaluated by a method similar to that in Example 1. Aptamers were obtained by transcription using double-stranded DNA as a template. […] In addition, “n.d.” indicates unmeasured.

[2] = biological target: T1, IL-21 (interleukin-21); experiment: cell_activity; 10 nM aptamer
Description: as §1
Whether these aptamers bind to human IL-21 and inhibit the function thereof was evaluated by a method similar to that in Example 1. Aptamers were obtained by transcription using double-stranded DNA as a template. The evaluation of inhibition in the cell assay system was performed at a nucleic acid final concentration of 10 nM. […] In the Table, “n.d.” indicates unmeasured.

[3] = biological target: T1, IL-21 (interleukin-21); experiment: cell_activity; 1 nM aptamer; 100.0 at 0.2 nM
Description: as §1
Whether these aptamers bind to human IL-21 and inhibit the function thereof was evaluated by preparing the aptamers by chemical synthesis and using a method similar to that in Example 1. The evaluation of inhibition in the cell assay system was performed at nucleic acid final concentrations of 1 nM and 0.2 nM. […] In the Table, “n.d.” indicates unmeasured.

[4] = biological target: T1, IL-21 (interleukin-21); experiment: SPR; negative control, no binding
[5] = biological target: T1, IL-21 (interleukin-21); experiment: cell_activity; 1 nM aptamer; 100.0% at 0.1 nM
Description: as §1
Whether these aptamers bind to human IL-21 and inhibit the function thereof was evaluated by preparing the aptamers by chemical synthesis and using a method similar to that in Example 1. The evaluation of inhibition in the cell assay system was performed at nucleic acid final concentrations of 1 nM and 0.1 nM. […] In the Table, “n.d.” indicates unmeasured.

[6] = biological target: T1, IL-21 (interleukin-21); experiment: cell_activity; IFN-gamma secretion from NK92 cells stimulated with human IL-21
Description: as §1
Whether these aptamers bind to human IL-21 and inhibit the function thereof was evaluated by preparing the aptamers by chemical synthesis and using a method similar to that in Example 1. […] The evaluation of inhibition in the cell assay system was performed at nucleic acid final concentrations of 1 nM and 0.2 nM. In addition, in a cell assay system, the aptamer concentration (IC₅₀) at which IFN-γ secretion was inhibited by 50% by IL-21 stimulation was determined. In the Table, “n.d.” indicates unmeasured.

T1 sequence (Q9HBE4 25-162): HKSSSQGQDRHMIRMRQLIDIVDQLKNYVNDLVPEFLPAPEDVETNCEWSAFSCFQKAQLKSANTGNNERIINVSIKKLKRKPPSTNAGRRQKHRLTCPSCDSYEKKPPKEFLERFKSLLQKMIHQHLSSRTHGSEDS

## GGACCUUCAACACGCGAUACUCGUGAUUGCCCGUCC (ssRNA, 2'-F pyrimidines) [SEQ14]
[1]
  activity: 13.3 % inhibition

## GGACCUUCAACACGCGACACUCGUGAUUGCCCGUCC (ssRNA, 2'-F pyrimidines) [SEQ15]
[1]
  activity: 10.7 % inhibition

## GGACCUUCAACACGCGACUCUCGUGAUUGCCCGUCC (ssRNA, 2'-F pyrimidines) [SEQ16]
[1]
  activity: 10.7 % inhibition

## GGACCGUCAACACGCGACUACUCGUGAUUGCCCGUCC (ssRNA, 2'-F all pyrimidines) [SEQ39]
[2]
  activity: 56.1 % inhibition

## GGACCUUCAACACGCGGCUACUCGUGAUUGCCCGUCC (ssRNA, as SEQ22(2) plus 5'-PEG 40 kDa; 3'-idT) [SEQ22(15)]
[3]
  activity: 100 % inhibition

B1: SEQ22(1) (ssRNA)
RNA: GGACCUUCAACACGCGGCUACUCGUGAUUGCCCGUCC
modifications: 2'-OMe 1-3,9-14,20,21,24-27,30-32,34-37; 2'-F 4-8,15,18,19,22,23,28,29,33; 2'-OH G16,G17; 3'-idT
[3]
  activity: 100 % inhibition

## GGACCUUCAACACGCGACUACCCGUGAUUGCCCGUCC (ssRNA, 2'-F all pyrimidines) [SEQ42]
[2]
  activity: 39 % inhibition

## GGACCUCCAACACGCGACUACUCGUGAUUGCCCGUCC (ssRNA, 2'-F all pyrimidines) [SEQ40]
[2]
  activity: 42 % inhibition

## GGACCUUCAACACGCGACGACUCGUGAUUGCCCGUCC (ssRNA, 2'-F all pyrimidines) [SEQ41]
[2]
  activity: 32.4 % inhibition

## GGACCUUCAACACGCGACUACUCGUGAUUGCACGUCC (ssRNA, 2'-F all pyrimidines) [SEQ43]
[2]
  activity: 43.7 % inhibition

## GGACCUUCAACACGCGGCUACUCGUGAUUGCCCGUCC (ssRNA, as SEQ22(1) plus 2'-OMe C4,U28,U29; 3'-idT) [SEQ22(2)]
[3]
  activity: 100 % inhibition

B2: SEQ49 negative control 51mer (ssRNA)
RNA: GGGAAGCUCCGUCGAGCUUUCCUGCAUAAGCUGUAUUGCAGCCAGCAUUUA
[4]
  binding result: no binding

## GACCUUCAACCCGCGGCUACUCGGGAUUGCCCGUC (ssRNA, as SEQ38(1) with PS after G15) [SEQ38(14)]
[5]
  activity: 100 % inhibition

## GACCUUCAACCCGCGGCUACUCGGGAUUGCCCGUC (ssRNA, as SEQ38(1) with PS after G16) [SEQ38(15)]
[5]
  activity: 100 % inhibition

## GACCUUCAACCCGCGGCUACUCGGGAUUGCCCGUC (ssRNA, as SEQ38(1) with PS after G15,G16) [SEQ38(18)]
[5]
  activity: 100 % inhibition

## GACCUUCAACCCGCGGCUACUCGGGAUUGCCCGUC (ssRNA, as SEQ38 plus 5' 40 kDa PEG) [SEQ38(1)]
[6]
  IC50: 0.02 nM

Source: patent publication US20230235333, “APTAMER FOR IL-21 AND USE THEREOF” (RIBOMIC INC, published 2023)
